From paper PMC10786891, “Massively parallel profiling of RNA-targeting CRISPR-Cas13d”
Substitutions are numbered along the chain they refer to. Names and notes keep the numbering of the source.

T1: EsCas13d, nuclease-dead (Eubacterium siraeum, UniProt B0MS50, R295A;H300A;R849A;H854A)
T1 sequence: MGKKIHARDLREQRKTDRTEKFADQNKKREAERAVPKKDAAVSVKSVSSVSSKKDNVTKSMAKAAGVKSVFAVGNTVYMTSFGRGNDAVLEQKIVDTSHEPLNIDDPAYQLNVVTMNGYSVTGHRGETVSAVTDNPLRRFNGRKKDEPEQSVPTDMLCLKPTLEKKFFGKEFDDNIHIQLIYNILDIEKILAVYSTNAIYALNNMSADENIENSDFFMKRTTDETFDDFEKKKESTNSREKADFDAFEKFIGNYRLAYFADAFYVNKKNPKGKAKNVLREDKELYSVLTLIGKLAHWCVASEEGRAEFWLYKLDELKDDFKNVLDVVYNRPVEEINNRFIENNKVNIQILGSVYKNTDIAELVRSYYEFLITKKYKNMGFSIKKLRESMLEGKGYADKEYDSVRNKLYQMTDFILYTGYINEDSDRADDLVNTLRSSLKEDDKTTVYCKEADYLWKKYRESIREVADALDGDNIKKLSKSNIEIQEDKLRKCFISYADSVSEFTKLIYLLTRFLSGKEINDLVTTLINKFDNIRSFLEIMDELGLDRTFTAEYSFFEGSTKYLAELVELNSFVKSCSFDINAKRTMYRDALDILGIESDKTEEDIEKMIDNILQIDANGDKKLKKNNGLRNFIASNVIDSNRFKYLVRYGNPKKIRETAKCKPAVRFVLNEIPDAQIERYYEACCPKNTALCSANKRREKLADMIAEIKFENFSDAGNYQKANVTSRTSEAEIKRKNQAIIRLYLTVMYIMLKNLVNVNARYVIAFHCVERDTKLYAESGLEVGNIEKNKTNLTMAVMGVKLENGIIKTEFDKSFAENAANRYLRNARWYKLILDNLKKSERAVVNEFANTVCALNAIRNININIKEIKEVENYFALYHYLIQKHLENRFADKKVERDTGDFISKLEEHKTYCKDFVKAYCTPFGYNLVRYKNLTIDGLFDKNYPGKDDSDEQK

B1: target 1 A18C,U19G (mixed)
RNA 1: CACCCGUGCAAAAAUGCAGGGGUCUAAAACUGAGCGGAUAACCUCUCUAUGG
RNA 2: GGGAAUGGAUCCACAUCUACGAAUUCGUACCAGCGAGAGGUUAUCCGCUCACCGAGAUCGGAAGAGCACACGU
B2: target 1 insC 3' of 18,insG 3' of 1 (mixed)
RNA 1: B1 RNA 1
RNA 2: GGGAAUGGAUCCACAUCUACGAAUUCGUACCAUACGAGAGGUUAUCCGCUCAGCCGAGAUCGGAAGAGCACACGU
B3: target 1 insU 3' of 20,insA 3' of 4 (mixed)
RNA 1: B1 RNA 1
RNA 2: B2 RNA 2 with A34U, C35A, U50A, C51U, A52C, G53A
B4: target 3 insC 3' of 4,insA 3' of 3 (mixed)
RNA 1: CACCCGUGCAAAAUUGCAGGGGUCUAAAACGACCUGAAUAUUUCAGAUCAAA
RNA 2: GGGAAUGGAUCCACAUCUACGAAUUCGUUUUUGAUCUGAAAUAUUCAGCGAUCUGCAGAUCGGAAGAGCACACGU
B5: target 3 U7G,U8A (mixed)
RNA 1: B4 RNA 1
RNA 2: GGGAAUGGAUCCACAUCUACGAAUUCGUUUUUGAUCUGAAAUAAGCAGGUCUGCAGAUCGGAAGAGCACACGU
B6: target 3 G4A,A18G (mixed)
RNA 1: B4 RNA 1
RNA 2: B5 RNA 2 with A34G, A44U, G45U, G48A
B7: target 3 insU 3' of 22,insU 3' of 5 (mixed)
RNA 1: B4 RNA 1
RNA 2: GGGAAUGGAUCCACAUCUACGAAUUCGUUUUUUGAUCUGAAAUAUUCAUGGUCUGCAGAUCGGAAGAGCACACGU
B8: target 3 U2G,U8C (mixed)
RNA 1: B4 RNA 1
RNA 2: B5 RNA 2 with A44C, G45U, U50G
B9: target 3 U2G,A5G (mixed)
RNA 1: B4 RNA 1
RNA 2: B5 RNA 2 with A44U, G45U, A47G, U50G
B10: target 3 A12C (mixed)
RNA 1: B4 RNA 1
RNA 2: B5 RNA 2 with A40C, A44U, G45U
B11: target 3 A11C (mixed)
RNA 1: B4 RNA 1
RNA 2: B5 RNA 2 with A41C, A44U, G45U
B12: target 3 U7G,A18G (mixed)
RNA 1: B4 RNA 1
RNA 2: B5 RNA 2 with A34G, A44U
B13: target 3 insA 3' of 21,insC 3' of 4 (mixed)
RNA 1: B4 RNA 1
RNA 2: B7 RNA 2 with U32A, U49G, G50C
B14: target 3 C6A,U7G (mixed)
RNA 1: B4 RNA 1
RNA 2: B5 RNA 2 with A44U, C46A
B15: target 3 C1G,U7G (mixed)
RNA 1: B4 RNA 1
RNA 2: B5 RNA 2 with A44U, C51G
B16: target 3 C1U,U2G (mixed)
RNA 1: B4 RNA 1
RNA 2: B5 RNA 2 with A44U, G45U, U50G, C51U
B17: target 3 C1G,A5C (mixed)
RNA 1: B4 RNA 1
RNA 2: B5 RNA 2 with A44U, G45U, A47C, C51G
B18: target 3 insA 3' of 8,insU 3' of 4 (mixed)
RNA 1: B4 RNA 1
RNA 2: B4 RNA 2 with U45A, C46U, A47C, G48A, C49G, G50U, A51G
B19: target 3 insA 3' of 7,insU 3' of 3 (mixed)
RNA 1: B4 RNA 1
RNA 2: B4 RNA 2 with C46A, A47C, G48A, C49G, A51U
B20: target 3 insG 3' of 5,insA 3' of 3 (mixed)
RNA 1: B4 RNA 1
RNA 2: B4 RNA 2 with C49G
B21: target 3 U2A,G4A (mixed)
RNA 1: B4 RNA 1
RNA 2: B5 RNA 2 with A44U, G45U, G48A, U50A
B22: target 3 A5C (mixed)
RNA 1: B4 RNA 1
RNA 2: B5 RNA 2 with A44U, G45U, A47C
B23: target 3 insA 3' of 22,insG 3' of 6 (mixed)
RNA 1: B4 RNA 1
RNA 2: B7 RNA 2 with U31A, A48G, U49A
B24: target 3 insA 3' of 8,insU 3' of 3 (mixed)
RNA 1: B4 RNA 1
RNA 2: B4 RNA 2 with U45A, C46U, A47C, G48A, C49G, A51U
B25: target 3 insC 3' of 9,insC 3' of 4 (mixed)
RNA 1: B4 RNA 1
RNA 2: B4 RNA 2 with U44C, C46U, A47C, G48A, C49G, G50C, A51G
B26: target 3 complement block 4-7 (mixed)
RNA 1: B4 RNA 1
RNA 2: B5 RNA 2 with A44U, G45A, C46G, A47U, G48C
B27: target 3 U7G,U22A (mixed)
RNA 1: B4 RNA 1
RNA 2: B5 RNA 2 with U30A, A44U
B28: target 3 A12G,U22A (mixed)
RNA 1: B4 RNA 1
RNA 2: B5 RNA 2 with U30A, A40G, A44U, G45U
B29: target 3 A5G,A13G (mixed)
RNA 1: B4 RNA 1
RNA 2: B5 RNA 2 with A39G, A44U, G45U, A47G
B30: target 3 insA 3' of 22,insC 3' of 19 (mixed)
RNA 1: B4 RNA 1
RNA 2: GGGAAUGGAUCCACAUCUACGAAUUCGUUUAUUGCAUCUGAAAUAUUCAGGUCUGCAGAUCGGAAGAGCACACGU
B31: target 3 insU 3' of 19,insU 3' of 3 (mixed)
RNA 1: B4 RNA 1
RNA 2: B7 RNA 2 with U33G, G34U, U49G, G51U
B32: target 3 insC 3' of 4,insU 3' of 3 (mixed)
RNA 1: B4 RNA 1
RNA 2: B4 RNA 2 with A51U
B33: target 3 C6U,A11U (mixed)
RNA 1: B4 RNA 1
RNA 2: B5 RNA 2 with A41U, A44U, G45U, C46U

molecular target: T1, EsCas13d, nuclease-dead; experiment: crRNA (strand 1, pre-loaded); Mg2+; 40 mM Tris-HCl pH 7.5, 150 mM NaCl, 6 mM MgCl2, 1 mM DTT, 0.1% Tween-20, 0.2 mg/ml BSA; 25 C; 10 min per concentration, then washed; conditions: tags: His6-TwinStrep-SUMO cleaved; N-terminal SNAP kept (SNAP-Surface 488); label: 3' end held by stalled T7 RNA polymerase

Binder	Kd
B1	55 ± 14 nM
B2	34 ± 4 nM
B3	8.6 ± 0.7 nM
B4	34 ± 4.05 nM
B5	67 ± 12 nM
B6	13.7 ± 1.15 nM
B7	6.45 ± 0.55 nM
B8	20.6 ± 2.2 nM
B9	2.54 ± 0.36 nM
B10	53 ± 8.5 nM
B11	81.5 ± 34 nM
B12	64 ± 22.5 nM
B13	50.5 ± 15.5 nM
B14	58 ± 6.5 nM
B15	28.9 ± 5.65 nM
B16	91 ± 20 nM
B17	83.5 ± 23 nM

Binder	Kd
B18	21.8 ± 3.6 nM
B19	76 ± 32 nM
B20	17.2 ± 2.55 nM
B21	3.11 ± 0.33 nM
B22	64.5 ± 11 nM
B23	12.2 ± 1.3 nM
B24	70 ± 20 nM
B25	87.5 ± 28 nM
B26	23.6 ± 1.75 nM
B27	41 ± 5.5 nM
B28	40.5 ± 5.5 nM
B29	~100 nM
B30	91 ± 25.5 nM
B31	105 ± 45 nM
B32	29.1 ± 3.6 nM
B33	92 ± 24 nM
